Consider 1 molecule from patent US20240035010, “COMPOSITIONS COMPRISING A VARIANT POLYPEPTIDE AND USES THEREOF” (Arbor Biotechnologies, Inc., published 2024).

Where a chain is given by its changes, count along the chain named.

The target of data set [1] is T1, variant nuclease E736G combination (P14R, D32R, I61R, E311R, E736G).
T1 chain: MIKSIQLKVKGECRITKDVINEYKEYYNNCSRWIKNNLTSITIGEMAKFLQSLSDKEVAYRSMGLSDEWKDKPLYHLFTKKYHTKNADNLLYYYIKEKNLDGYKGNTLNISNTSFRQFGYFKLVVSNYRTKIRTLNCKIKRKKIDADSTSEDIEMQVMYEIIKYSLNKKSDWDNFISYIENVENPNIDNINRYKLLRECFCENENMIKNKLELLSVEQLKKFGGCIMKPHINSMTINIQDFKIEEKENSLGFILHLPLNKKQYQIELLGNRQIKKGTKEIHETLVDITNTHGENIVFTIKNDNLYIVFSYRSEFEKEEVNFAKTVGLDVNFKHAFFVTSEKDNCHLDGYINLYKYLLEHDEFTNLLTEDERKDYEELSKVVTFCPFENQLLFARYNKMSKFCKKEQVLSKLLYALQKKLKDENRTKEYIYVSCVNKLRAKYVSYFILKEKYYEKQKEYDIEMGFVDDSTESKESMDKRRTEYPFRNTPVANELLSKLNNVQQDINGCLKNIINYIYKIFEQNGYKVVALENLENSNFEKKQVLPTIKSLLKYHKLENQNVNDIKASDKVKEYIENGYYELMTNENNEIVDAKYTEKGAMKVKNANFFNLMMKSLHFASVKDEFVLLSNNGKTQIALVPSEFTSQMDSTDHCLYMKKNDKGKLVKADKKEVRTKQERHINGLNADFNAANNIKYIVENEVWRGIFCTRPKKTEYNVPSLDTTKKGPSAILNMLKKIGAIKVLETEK
Put plainly: cell_activity; PAM 5'-TTTA-3'. As to conditions: tags: pcDNA3.1 expression. In outline: (§1)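 HEK293T cells were lipofected with nuclease plasmid (pcDNA3.1 backbone) plus RNA guide plasmid, with guide omitted in negative controls. After ~72 h cells were lysed in QuickExtract and % indels were derived from NGS reads, averaged over two bioreplicates and two technical replicates.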

The target in data set [2] is T2, variant nuclease E154G combination (P14R, D32R, I61R, E311R, E154G).
T2 chain: T1 chain with E154G, G736E
Put plainly: cell_activity; PAM 5'-TTTA-3'. As to conditions: tags: pcDNA3.1 expression. A digest of the protocol: as §1

B1: VEGFA crRNA ; VEGFA target (ssRNA ; dsDNA)
RNA: CUUGUUGUAUAUGUCCUUUUAUAGGUAUUAAACAACUCCAGACCACCAAUGGGCAC
DNA 1: TCCAGACCACCAATGGGCAC
DNA 2: GTGCCCATTGGTGGTCTGGA
For the molecule B1, the indel activity in data set [1] and in data set [2] was 2.65 fold of WT throughout.
